According to US7435413 (dated 2008):

Biological target: T1, sTF (soluble human tissue factor 1-219) (human)
T1 chain: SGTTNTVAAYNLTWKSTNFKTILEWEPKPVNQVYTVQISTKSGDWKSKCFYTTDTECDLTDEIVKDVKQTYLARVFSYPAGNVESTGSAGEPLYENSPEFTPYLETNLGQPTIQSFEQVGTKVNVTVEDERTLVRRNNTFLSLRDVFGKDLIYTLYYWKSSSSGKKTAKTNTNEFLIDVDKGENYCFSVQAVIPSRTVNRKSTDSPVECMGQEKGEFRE
Experiment: SPR

Kd: 1.7 nM
B1: 5G6 (antibody, V domains shown)
VH: EVLLQQSGPELVKPGASVKIPCKASGYTFTEYNMDWVKQSHGKSLEWIGDINPNNGNTIYNQKFKGKATLTVDKSSTTAYLELRSLTSEDTAVYFCARDHDYYFDFWGQGTTLTVSS
VL: DIQMTQTPASQSASLGESVTITCLASQTIDTWLAWYQQKPGKSPQLLIYAATSLADGVPSRFSGSGSGTKFSFKISSLQAEDFVSYYCQQPYSSPYTFGGGTKLELKR
